Measurements from the supplement of paper PMC9112550, “Optimization of the antimicrobial peptide Bac7 by deep mutational scanning” (BMC Biology, 2022).

test system: Escherichia coli TOP10; experiment: shrunken log2 fold change of peptide-encoding DNA abundance (4.5 h post-induction vs induction); higher = less antimicrobial activity (less host growth inhibition); details: time post-induction: 4.5 h; library: site-saturation at positions 5, 18, 19, 20
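Also: peptides expressed intracellularly from a pBAD plasmid library in pooled LB shake-flask culture, induced with 0.3% L-arabinose, DNA abundance read by NGS, three biological replicates, DESeq2 with apeglm shrinkage.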

| Sequence | shrunken log2 fold change |
| --- | --- |
| RRIRLRPPRLPRPRPRPYNIPRP | -1.31 |
| RRIRGRPPRLPRPRPRPVMLPRP | 0.317 |
| RRIRKRPPRLPRPRPRPEGEPRP | -0.0225 |
| RRIRCRPPRLPRPRPRPMQYPRP | -0.000361 |
| RRIRRRPPRLPRPRPRPNWWPRP | 1.05 |
| RRIRQRPPRLPRPRPRPKFTPRP | 0.025 |
| RRIRMRPPRLPRPRPRPTVRPRP | 0.216 |
| RRIRIRPPRLPRPRPRPYCMPRP | -1.34 |
| RRIRIRPPRLPRPRPRPHAMPRP | -0.125 |
| RRIRIRPPRLPRPRPRPHQIPRP | -0.423 |
| RRIRERPPRLPRPRPRPLGSPRP | -0.0249 |
| RRIRWRPPRLPRPRPRPICFPRP | 0.135 |
| RRIRIRPPRLPRPRPRPSHHPRP | -0.941 |
| RRIRKRPPRLPRPRPRPHFVPRP | 0.347 |
| RRIRVRPPRLPRPRPRPNPKPRP | -0.0645 |
| RRIRVRPPRLPRPRPRPPPDPRP | 0.834 |
| RRIRDRPPRLPRPRPRPAQMPRP | 1.2 |
| RRIRIRPPRLPRPRPRPLGWPRP | 0.339 |
| RRIRQRPPRLPRPRPRPWPRPRP | 0.014 |
| RRIRERPPRLPRPRPRPTPNPRP | 0.0742 |
| RRIRFRPPRLPRPRPRPRQSPRP | 0.443 |
| RRIRFRPPRLPRPRPRPRWCPRP | 0.14 |

| Sequence | shrunken log2 fold change |
| --- | --- |
| RRIRTRPPRLPRPRPRPLRQPRP | 0.456 |
| RRIRIRPPRLPRPRPRPTKMPRP | -0.116 |
| RRIRARPPRLPRPRPRPRTGPRP | 0.387 |
| RRIRLRPPRLPRPRPRPTPPPRP | 0.648 |
| RRIRVRPPRLPRPRPRPYRFPRP | -0.0944 |
| RRIRARPPRLPRPRPRPNCVPRP | 0.23 |
| RRIRVRPPRLPRPRPRPEPSPRP | 0.0778 |
| RRIRARPPRLPRPRPRPMNCPRP | -0.116 |
| RRIRYRPPRLPRPRPRPNAGPRP | -0.31 |
| RRIRMRPPRLPRPRPRPVALPRP | 0.711 |
| RRIRIRPPRLPRPRPRPYKDPRP | -0.317 |
| RRIRQRPPRLPRPRPRPNSSPRP | -1.14 |
| RRIRIRPPRLPRPRPRPWCIPRP | -0.0951 |
| RRIRPRPPRLPRPRPRPEWFPRP | 0.341 |
| RRIRYRPPRLPRPRPRPTQKPRP | -0.0476 |
| RRIRLRPPRLPRPRPRPAIQPRP | 0.987 |
| RRIRLRPPRLPRPRPRPHQGPRP | -0.0634 |
| RRIRYRPPRLPRPRPRPLCTPRP | -0.759 |
| RRIRRRPPRLPRPRPRPWIGPRP | 0.0943 |
| RRIRLRPPRLPRPRPRPQDNPRP | -0.428 |
| RRIRHRPPRLPRPRPRPLNCPRP | -0.134 |
| RRIRPRPPRLPRPRPRPEVGPRP | 0.353 |

| Sequence | shrunken log2 fold change |
| --- | --- |
| RRIRYRPPRLPRPRPRPAGNPRP | -0.601 |
| RRIRARPPRLPRPRPRPQIYPRP | -0.354 |
| RRIRIRPPRLPRPRPRPANTPRP | 0.027 |
| RRIRHRPPRLPRPRPRPPLKPRP | -0.00744 |
| RRIRWRPPRLPRPRPRPKEYPRP | 0.02 |
| RRIRSRPPRLPRPRPRPISIPRP | 0.0336 |
| RRIRYRPPRLPRPRPRPNKNPRP | -0.935 |
| RRIRWRPPRLPRPRPRPPVGPRP | 0.167 |
| RRIRSRPPRLPRPRPRPCYEPRP | -0.167 |
| RRIRMRPPRLPRPRPRPVHEPRP | -0.232 |
| RRIRFRPPRLPRPRPRPTECPRP | -0.0986 |
| RRIRMRPPRLPRPRPRPHNFPRP | -0.0303 |
| RRIRWRPPRLPRPRPRPVSFPRP | 0.169 |
| RRIRWRPPRLPRPRPRPDAVPRP | 0.4 |
| RRIRTRPPRLPRPRPRPCSCPRP | -0.0701 |
| RRIRFRPPRLPRPRPRPGQNPRP | 0.0186 |
| RRIRERPPRLPRPRPRPRKPPRP | -0.13 |
| RRIRCRPPRLPRPRPRPRNKPRP | -0.102 |
| RRIRFRPPRLPRPRPRPLRFPRP | 0.186 |
| RRIRMRPPRLPRPRPRPCETPRP | -0.263 |
| RRIRIRPPRLPRPRPRPYSMPRP | -0.436 |
| RRIRHRPPRLPRPRPRPSDTPRP | -1.05 |

| Sequence | shrunken log2 fold change |
| --- | --- |
| RRIRKRPPRLPRPRPRPDCNPRP | -0.00139 |
| RRIRHRPPRLPRPRPRPWVCPRP | -0.044 |
| RRIRYRPPRLPRPRPRPFPVPRP | -0.149 |
| RRIRSRPPRLPRPRPRPGFKPRP | 0.122 |
| RRIRVRPPRLPRPRPRPWKQPRP | -0.0479 |
| RRIRIRPPRLPRPRPRPDSHPRP | -0.379 |
| RRIRWRPPRLPRPRPRPPWLPRP | 0.526 |
| RRIRYRPPRLPRPRPRPNCQPRP | -0.0282 |
| RRIRNRPPRLPRPRPRPWWAPRP | -0.0446 |
| RRIRKRPPRLPRPRPRPKDMPRP | 0.139 |
| RRIRKRPPRLPRPRPRPYCTPRP | -0.19 |
| RRIRERPPRLPRPRPRPQWQPRP | -0.109 |
| RRIRVRPPRLPRPRPRPAHHPRP | -0.011 |
| RRIRPRPPRLPRPRPRPDTDPRP | -0.158 |
| RRIRYRPPRLPRPRPRPTGWPRP | 0.088 |
| RRIRLRPPRLPRPRPRPGLRPRP | 0.234 |
| RRIRRRPPRLPRPRPRPPKDPRP | 0.472 |
| RRIRLRPPRLPRPRPRPFFPPRP | -0.225 |
| RRIRLRPPRLPRPRPRPYRQPRP | -0.0238 |
| RRIRSRPPRLPRPRPRPMCKPRP | 0.204 |
| RRIRARPPRLPRPRPRPWIIPRP | -0.0127 |
| RRIRSRPPRLPRPRPRPVTIPRP | -0.373 |

| Sequence | shrunken log2 fold change |
| --- | --- |
| RRIRERPPRLPRPRPRPAHSPRP | -0.159 |
| RRIRCRPPRLPRPRPRPLWTPRP | -0.00711 |
| RRIRIRPPRLPRPRPRPYAVPRP | -0.937 |
| RRIRSRPPRLPRPRPRPMLEPRP | -0.0898 |
| RRIRTRPPRLPRPRPRPNPNPRP | -0.306 |
| RRIRQRPPRLPRPRPRPCWFPRP | -0.257 |
| RRIRKRPPRLPRPRPRPEGDPRP | 1.24 |
| RRIRTRPPRLPRPRPRPDCAPRP | 0.719 |
| RRIRWRPPRLPRPRPRPQWIPRP | 0.0797 |
| RRIRERPPRLPRPRPRPPMMPRP | -0.0743 |
| RRIRNRPPRLPRPRPRPFMPPRP | -0.209 |
| RRIRIRPPRLPRPRPRPTHDPRP | -0.0575 |
| RRIRFRPPRLPRPRPRPCMAPRP | -0.594 |
| RRIRVRPPRLPRPRPRPYTVPRP | -0.0784 |
| RRIRWRPPRLPRPRPRPLRNPRP | 0.847 |
| RRIRQRPPRLPRPRPRPCHCPRP | -0.00822 |
| RRIRCRPPRLPRPRPRPMYGPRP | -0.675 |
| RRIRSRPPRLPRPRPRPSPEPRP | 0.0709 |
| RRIRPRPPRLPRPRPRPAHSPRP | -0.00917 |
| RRIRLRPPRLPRPRPRPKRDPRP | 0.43 |
| RRIRHRPPRLPRPRPRPHQCPRP | 1.73 |
